This test concerns the target HIV-1 JR-FL gp120 envelope glycoprotein (HIV-1 JR-FL). Put plainly: cell-based or functional assay.

Turning to “CD4-IgG2 (from UniProt P01730 26-204; P01730 26-204) (Fc fusion)”, the K (equal to the IC50) for inhibition of HIV-1 env-mediated membrane fusion, RET assay, HeLa-EnvJR-FL and PM1 cells was determined as 0.31 µg/mL.

These data come from patent US20030082185A1.
